In paper PMC3841736:

Biological target: APC (UniProt P25054)
Assay: Flag co-IP, immunoblot
Conditions: reference: wild-type Flag:α-catenin; sites Y177

- binding against the reference: stronger
Substance: α-catenin (from UniProt P35221) Y177F
